How the values were obtained:
[1] = target: IL-15 receptors on CD8+ T cells and NK cells of cynomolgus monkey whole blood (cynomolgus monkey)
[2] = target: IL-15 receptors on CD8+ T cells and NK cells of cynomolgus monkey whole blood (cynomolgus monkey); remark: listed apart in the source

| Substance | EC50 of STAT5 signaling (pSTAT5), CD8+ T cells, cynomolgus monkey whole blood [1] [ng/ml] | EC50 of STAT5 signaling (pSTAT5), NK cells, cynomolgus monkey whole blood [1] [ng/ml] | fold change of EC50 for pSTAT5 induction against native IL-15, CD8+ T cells, cynomolgus monkey whole blood [2] [fold] | fold change of EC50 for pSTAT5 induction against native IL-15, NK cells, cynomolgus monkey whole blood [2] [fold] |
| --- | --- | --- | --- | --- |
| IL-15_E54[AzK_PEG30] (ligand) | 9.2 | 1.8 |  |  |
| IL-15_L26[AzK_PEG30] (ligand) | 1040 | 219 | 164 | 115 |
| IL-15_N78[AzK_PEG30] (ligand) | 15.7 | 3.9 |  |  |
| native IL-15 (from UniProt P40933) (ligand) | 6.3 | 1.9 |  |  |
